The text below walks through data of PMC5627591.

Read-outs that look alike come from different tables or passages of the source. Some results are limits rather than exact numbers.

What all share (assay): BLI
A general note: In BLI a coated tip is dipped into the sample, and binding shifts an interference pattern.

Assay [1] concerns the target human IgG1 Fc-YPY variant (M252Y/V308P/N434Y) of the pH-dependent mAbs (human).
Assay [2] has as its target human IgG1 wild-type (WT) Fc variant of the pH-dependent mAbs (human).
Assay [3] has as its target human IgG1 Fc-YTE variant (M252Y/S254T/T256E) of the pH-dependent mAbs (human).
In assay [4] the target is human IgG1 Fc-YEY variant (M252Y/N286E/N434Y) of the pH-dependent mAbs (human).
Assay [5] has as its target human IgG1 Fc-YPY variant (M252Y/V308P/N434Y) of the pH-dependent mAbs (human). The source holds these as a separate data set.
Assay [6] addresses human IgG1 Fc-YTE variant (M252Y/S254T/T256E) of the pH-dependent mAbs (human). This is another data set of the same source.
In assay [7] the target is human IgG1 Fc-YEY variant (M252Y/N286E/N434Y) of the pH-dependent mAbs (human). The source holds these as a separate data set.
The target in assay [8] is human IgG1 wild-type (WT) Fc variant of the pH-dependent mAbs (human). The source holds these as a separate data set.

The Kd is the concentration at which binding is half-saturated. The low end stands for a tighter complex, the high end for a looser complex. Regarding “cyno FcRn (cynomolgus monkey neonatal Fc receptor) (from UniProt Q8SPV9 24-365)”, the Kd in assay [1] is 2.2 nM; in assay [2], 853 nM; in assay [3], 76 nM; in assay [4], 4.3 nM; in assay [5], 28 nM; in assay [6] it was 1110 nM. Besides, the Kd in assay [7] turned out to be 66 nM.

“human FcRn (human neonatal Fc receptor) (from UniProt P55899 24-365)”: the Kd in assay [1] was 1.6 nM; in assay [2] it was 185 nM; in assay [3], 30 nM; in assay [4] it was 3.1 nM; in assay [5], 14 nM; in assay [8], greater than 10000 nM. Further, the Kd in assay [6] was 760 nM; in assay [7], 22 nM.
